The target in one series is HxlR-K13A (Bacillus subtilis 168, UniProt P42406 1-120, K13A). The series can be described thus: EMSA; no FA; higher basal binding than WT; EMSA: protein preincubated +/- FA (1 mM in Methods, 0.6 mM in legends) in 20 mM HEPES pH 7.5, 300 mM NaCl, 1-2 h, 37 C; then 50 nM dsDNA in 20 mM HEPES pH 7.0. For orientation: A gel shift assay detects complexes by their altered migration in electrophoresis.

Series [1] deals with T1, HxlR-WT (Bacillus subtilis 168, UniProt P42406 1-120). The series can be described thus: EMSA; FA-treated (0.6 mM FA in text/legend; 1 mM in Methods); DNA binding enhanced; EMSA: protein preincubated +/- FA (1 mM in Methods, 0.6 mM in legends) in 20 mM HEPES pH 7.5, 300 mM NaCl, 1-2 h, 37 C; then 50 nM dsDNA in 20 mM HEPES pH 7.0.
Series [2] has as its target T1, HxlR-WT. The series can be described thus: X-ray crystallography (2.9 A); 1 mM FA-treated protein; Cys11-CH2-Lys13 methylene bridge; 50 mM MgCl2 in crystallization; EMSA: protein preincubated +/- FA (1 mM in Methods, 0.6 mM in legends) in 20 mM HEPES pH 7.5, 300 mM NaCl, 1-2 h, 37 C; then 50 nM dsDNA in 20 mM HEPES pH 7.0.

B1: BRH (hxlAB promoter EMSA probe) (dsDNA)
DNA 1: CCTCACAGTATCCTCCAAGTAACTTGTTGACTTCAAAGTGCCTACTTCTC
DNA 2: GAGAAGTAGGCACTTTGAAGTCAACAAGTTACTTGGAGGATACTGTGAGG
B1: the binding result with HxlR-K13A and with HxlR-WT [1] was “binds” throughout.

B2: 20 bp palindromic crystallization DNA (dsDNA)
DNA 1: CAGTATCCTCGAGGATACTG
DNA 2: CAGTATCCTCGAGGATACTG
Regarding B2, the binding result with HxlR-WT [2] is on record as “binds”.
